# Patent publication US5783663A, “Peptide ligands for affinity purification of fibrinogen” (Bayer Corporation, priority 1998, dated 1998)
# Columns and labels:
# [1] = molecular target: T1, Ribonuclease S-protein (Bos taurus, UniProt P61823); assay: Radiological screening of library spiked with YNFEVL-beads against 14C-S-protein, scintillation counting of isolated beads; type: binding
# T1 construct: Ribonuclease S-protein was purchased from Sigma (St. Louis, Mo.); purchased Sigma (St. Louis, Mo.)
# T1 sequence (P61823 47-150 limits assumed): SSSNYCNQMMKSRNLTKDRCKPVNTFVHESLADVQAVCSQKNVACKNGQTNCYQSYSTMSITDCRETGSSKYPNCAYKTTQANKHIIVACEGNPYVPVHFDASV
# Excerpt: Following the protocol of Jentoft et al. (21), aminated beads (resin modified with TOTDA-linker) and proteins were labeled using reductive ^14 C-methylation. The ^14 C-methylated beads are hereafter referred to as ^14 C-Test Beads. The ^14 C-labeled formaldehyde was obtained from Dupont-NEN (55 Ci/mole, Boston, Mass.). Ribonuclease S-protein was purchased from Sigma (St. Louis, Mo.); human fibrinogen, from Chromogenix AB (Molndal, Sweden). To separate ^14 C-labeled protein from non-incorporated ^14 C-formaldehyde, an Econopac 10DG Desalting Column (Biorad, Hercules, Calif.) was employed. The ^14 C-labeled proteins were stored in the labeling buffer, 0.1M sodium phosphate buffer (Fisher, Pittsburgh, Pa.), pH 7, at -18° C. Pure protein solutions were quantitated using A280, with extinction coefficients of 1.5 and 0.73 for fibrinogen and S-protein, respectively. The resulting protein concentrations were 30 μM for ^14 C-S-protein, and 4 μM for ^14 C-fibrinogen. Maximal labeling yield was calculated based on maximum of two ^14 C-labeled methyl groups per mole of amino groups.
# The number of disintegrations per minute, DPM, of radioactive samples was determined using a 1500 TriCarb Liquid Scintillation Analyzer from Packard (Meridan, Conn.) and CytoScint ES scintillation liquid from ICN (Casta Mesa, Calif.). Values of DPM are corrected for the background of the liquid scintillation counter (30-35 DPM) unless specified otherwise.
# Library beads, 20 mg in dry weight per experiment, were first mixed with 1 ml of blocking solution to block non-specific interactions between the peptides and ^14 C-protein. For screenings against S-protein, 2% bovine serum albumin (BSA, Sigma) in PBS containing 0.05% Tween (Sigma) was used as blocking solution. For screenings against fibrinogen, either 2% BSA in PBS with 0.05% Tween or Blocker™Casein (1%) in PBS (Pierce) was used. Each mixture of beads and blocking solution was incubated in a Cryotube (Nunc, Denmark) for 2 hours on a tube rotator.
# The blocked library beads were then exposed to target protein by pipetting the ^14 C-labeled protein directly into the mixture of beads and blocking solution. […] For fibrinogen experiments, 13 μl and 65 μl of the 4 μM ^14 C-fibrinogen solution was added, yielding final fibrinogen concentrations of 50 nM and 250 nM, respectively. The mixtures of beads, blocking solution, and protein solution were further rotated for 1.5 hours (S-protein experiment) and for 1 hour (fibrinogen experiment).
# After completion of blocking and binding, the beads were transferred to a Polyprep column (Biorad) and rinsed with PBS containing 0.05% Tween 20 (Sigma) until the column flow-through reached background DPM levels. The total rinsing volumes were 200 ml and 140 ml for S-protein and fibrinogen, respectively. […]
# [2] = molecular target: T2, S-protein (Bos taurus, UniProt P61823); conditions: reference (3); cited from earlier work
# T2 sequence (P61823 47-150 limits assumed): T1 sequence (P61823 47-150 limits assumed)
substance,measurement,setting,value
YNFEVL,"amount of protein bound per bead, average","[1]; 14C-S-protein 1 µM in PBS with 0.05% Tween 20, 2% BSA, average of isolated positive beads",133 fmol protein/bead
same,radioactivity of 14C-S-protein bound per bead,"[1]; 14C-S-protein 1 µM in PBS with 0.05% Tween 20, 2% BSA, background (33 DPM) subtracted",41-243 DPM/bead
same,amount of protein bound per bead,"[1]; 14C-S-protein 1 µM in PBS with 0.05% Tween 20, 2% BSA, range over isolated positive beads",49-289 fmol protein/bead
same,peptide to protein ratio (YNFEVL-peptide molecules to 1 S-protein molecule),[1]; from average 70 pmol peptide/bead and 133 fmol protein/bead,~500
same,association constant for binding S-protein,[2],10^4 -10^5 M^-1
